Source: US20060223096A1 (GLYCART BIOTECHNOLOGY, published 2006)

B1: M-HHB heavy chain coexpressed with murine 225.28S light chain (mVL) (antibody, V domains shown)
VH: EVQLVESGGGLVKPGGSLRLSCAASGFTFSNYWMNWVRQAPGKGLEWVGEIRLKSNNFGRYYAESVKGRFTISRDDSKNTLYLQMNSLKTEDTAVYYCTSYGNYVGHYFDHWGQGTTVTVSS
VL: DIELTQSPKFMSTSVGDRVSVTCKASQNVDTNVAWYQQKPGQSPEPLLFSASYRYTGVPDRFTGSGSGTDFTLTISNVQSEDLAEYFCQQYNSYPLTFGGGTKLEIK
notes: also called M-HHB/mVL
B2: M-HHA heavy chain coexpressed with murine 225.28S light chain (mVL) (antibody, V domains shown)
VH: EVQLVESGGGLVKPGGSLRLSCAASGFTFSNYWMNWVRQAPGKGLEWVGEIRLKSNNFGRYYAASVKGRFTISRDDSKNTLYLQMNSLKTEDTAVYYCTTYGNYVGHYFDHWGQGTTVTVSS
VL: DIELTQSPKFMSTSVGDRVSVTCKASQNVDTNVAWYQQKPGQSPEPLLFSASYRYTGVPDRFTGSGSGTDFTLTISNVQSEDLAEYFCQQYNSYPLTFGGGTKLEIK
notes: also called M-HHA/mVL
B3: M-HHC heavy chain coexpressed with murine 225.28S light chain (mVL) (antibody, V domains shown)
VH: EVQLVESGGGLVKPGGSLRLSCAASGFTFSNYWMNWVRQAPGKGLEWVANIRLKSNNFGRYYAESVKGRFTISRDDSKNTLYLQMNSLKTEDTAVYYCTSYGNYVGHYFDHWGQGTTVTVSS
VL: DIELTQSPKFMSTSVGDRVSVTCKASQNVDTNVAWYQQKPGQSPEPLLFSASYRYTGVPDRFTGSGSGTDFTLTISNVQSEDLAEYFCQQYNSYPLTFGGGTKLEIK
notes: also called M-HHC/mVL
B4: M-HLE1 heavy chain paired with the light chain construct M-KV4 (antibody, V domains shown)
VH: EVQLVESGGGLVKPGGSLRLSCAASGFTFSNYWMNWVRQAPGKGLEWVGEIRLKSNNFGRYYAQKFQERVTITRDMSTSTAYMELSSLRSEDTAVYYCAAYGNYVGHYFDHWGQGTTVTVSS
VL: DIQLTQSPSFLSASVGDRVTITCKASQNVDTNVAWYQQKPGKAPEPLLFSASYRYTGVPSRFSGSGSGTEFTLTISSLQPEDFATYYCQQYNSYPLTFGGGTKVEIKR
notes: also called M-HLE1/M-KV4
B5: M-HLE2 heavy chain paired with the light chain construct M-KV4 (antibody, V domains shown)
VH: EVQLVESGGGLVKPGGSLRLSCAASGFTFSNYWMNWVRQAPGKGLEWVGEIRLKSNNFGRYYAESVKGRVTITRDMSTSTAYMELSSLRSEDTAVYYCAAYGNYVGHYFDHWGQGTTVTVSS
VL: DIQLTQSPSFLSASVGDRVTITCKASQNVDTNVAWYQQKPGKAPEPLLFSASYRYTGVPSRFSGSGSGTEFTLTISSLQPEDFATYYCQQYNSYPLTFGGGTKVEIKR
notes: also called M-HLE2/M-KV4
B6: humanized M-HLG/M-KV9 construct of the 225.28S antibody (antibody, V domains shown)
VH: EVQLVESGGGLVQPGGSLRLSCAASGFTFSNYWMNWVRQAPGKGLEWVAEIRLKSNNFGRYYAASVKGRFTISRDDSKNTLYLQMNSLKTEDTAVYYCTTYGNYVGHYFDHWGQGTTVTVSS
VL: DIQLTQSPSFLSASVGDRVTITCKASQNVDTNVAWYQQKPGQAPRPLIYSASYRYTGVPSRFSGSGSGTEFTLTISSLQPEDFATYYCQQYNSYPLTFGGGTKVEIKR
notes: also called M-KV9 together with M-HLG
B7: M-HLG heavy chain paired with the light chain construct M-KV4 (antibody, V domains shown)
VH: EVQLVESGGGLVQPGGSLRLSCAASGFTFSNYWMNWVRQAPGKGLEWVAEIRLKSNNFGRYYAASVKGRFTISRDDSKNTLYLQMNSLKTEDTAVYYCTTYGNYVGHYFDHWGQGTTVTVSS
VL: DIQLTQSPSFLSASVGDRVTITCKASQNVDTNVAWYQQKPGKAPEPLLFSASYRYTGVPSRFSGSGSGTEFTLTISSLQPEDFATYYCQQYNSYPLTFGGGTKVEIKR
notes: also called M-HLG/M-KV4
B8: M-KV4 light chain paired with the M-HHB heavy chain (antibody, V domains shown)
VH: EVQLVESGGGLVKPGGSLRLSCAASGFTFSNYWMNWVRQAPGKGLEWVGEIRLKSNNFGRYYAESVKGRFTISRDDSKNTLYLQMNSLKTEDTAVYYCTSYGNYVGHYFDHWGQGTTVTVSS
VL: DIQLTQSPSFLSASVGDRVTITCKASQNVDTNVAWYQQKPGKAPEPLLFSASYRYTGVPSRFSGSGSGTEFTLTISSLQPEDFATYYCQQYNSYPLTFGGGTKVEIKR
notes: also called M-HHB/M-KV4
B9: M-KV5 light chain paired with the M-HHB heavy chain (antibody, V domains shown)
VH: EVQLVESGGGLVKPGGSLRLSCAASGFTFSNYWMNWVRQAPGKGLEWVGEIRLKSNNFGRYYAESVKGRFTISRDDSKNTLYLQMNSLKTEDTAVYYCTSYGNYVGHYFDHWGQGTTVTVSS
VL: DIQLTQSPSFLSASVGDRVTITCKASQNVDTNVAWYLQKPGQSPQLLIYSASYRYTGVPSRFSGSGSGTEFTLTISSLQPEDFATYYCQQYNSYPLTFGGGTKVEIKR
notes: also called M-HHB/M-KV5
B10: M-KV6 light chain paired with the M-HHB heavy chain (antibody, V domains shown)
VH: EVQLVESGGGLVKPGGSLRLSCAASGFTFSNYWMNWVRQAPGKGLEWVGEIRLKSNNFGRYYAESVKGRFTISRDDSKNTLYLQMNSLKTEDTAVYYCTSYGNYVGHYFDHWGQGTTVTVSS
VL: DIQLTQSPSFLSASVGDRVTITCKASQNVDTNVAWFQQRPGQSPRRLIYSASYRYTGVPSRFSGSGSGTEFTLTISSLQPEDFATYYCQQYNSYPLTFGGGTKVEIKR
notes: also called M-HHB/M-KV6
B11: M-KV7 light chain paired with the M-HHB heavy chain (antibody, V domains shown)
VH: EVQLVESGGGLVKPGGSLRLSCAASGFTFSNYWMNWVRQAPGKGLEWVGEIRLKSNNFGRYYAESVKGRFTISRDDSKNTLYLQMNSLKTEDTAVYYCTSYGNYVGHYFDHWGQGTTVTVSS
VL: DIQLTQSPSFLSASVGDRVTITCKASQNVDTNVAWYQQKPGKAPKPLIYSASYRYTGVPSRFSGSGSGTEFTLTISSLQPEDFATYYCQQYNSYPLTFGGGTKVEIKR
notes: also called M-KV7 antibody; M-HHB/M-KV7
B12: M-KV9 light chain combined with the M-HHB heavy chain (antibody, V domains shown)
VH: EVQLVESGGGLVKPGGSLRLSCAASGFTFSNYWMNWVRQAPGKGLEWVGEIRLKSNNFGRYYAESVKGRFTISRDDSKNTLYLQMNSLKTEDTAVYYCTSYGNYVGHYFDHWGQGTTVTVSS
VL: DIQLTQSPSFLSASVGDRVTITCKASQNVDTNVAWYQQKPGQAPRPLIYSASYRYTGVPSRFSGSGSGTEFTLTISSLQPEDFATYYCQQYNSYPLTFGGGTKVEIKR
notes: also called M-KV9 with M-HHB; M-HHB/M-KV9
B13: M-KV10 light chain combined with the M-HLG heavy chain (antibody, V domains shown)
VH: EVQLVESGGGLVQPGGSLRLSCAASGFTFSNYWMNWVRQAPGKGLEWVAEIRLKSNNFGRYYAASVKGRFTISRDDSKNTLYLQMNSLKTEDTAVYYCTTYGNYVGHYFDHWGQGTTVTVSS
VL: DIQLTQSPSFLSASVGDRVTITCRASQNVDTNLAWYQQKPGQAPRPLIYSASYRYTGVPSRFSGSGSGTEFTLTISSLQPEDFATYYCQQYNSYPLTFGGGTKVEIKR
notes: also called M-HLG/M-KV10
B14: M-KV12 light chain combined with the M-HLG heavy chain (antibody, V domains shown)
VH: EVQLVESGGGLVQPGGSLRLSCAASGFTFSNYWMNWVRQAPGKGLEWVAEIRLKSNNFGRYYAASVKGRFTISRDDSKNTLYLQMNSLKTEDTAVYYCTTYGNYVGHYFDHWGQGTTVTVSS
VL: DIQLTQSPSFLSASVGDRVTITCKASQNVDTNVAWYQQKPGQAPRPLIYSASYLQSGVPSRFSGSGSGTEFTLTISSLQPEDFATYYCQQYNSYPLTFGGGTKVEIKR
notes: also called M-HLG/M-KV12
B15: M-HLC heavy chain combined with the light chain construct M-KV3 (antibody, V domains shown)
VH: QVQLVQSGAEVKKPGASVKVSCKASGYTFTNYWMNWVRQAPGQGLEWMGEIRLKSNNFGRYYAESVKGRVTITRDTSMSTAYMELSSLRSEDTAVYYCAAYGNYVGHYFDHWGQGTTVTVSS
VL: DIQLTQSPSFLSASVGDRVTVTCKASQNVDTNVAWYQQKPGKAPEPLLFSASYRYTGVPSRFSGSGSGTEFTLTISSLQPEDFATYYCQQYNSYPLTFGGGTKVEIKR
notes: also called M-HLC/M-KV3
B16: M-HLA heavy chain combined with the light chain construct M-KV3 (antibody, V domains shown)
VH: QVQLVQSGAEVKKPGASVKVSCKASGYTFTNYWMNWVRQAPGQGLEWMGEIRLKSNNFGRYYAQKFQGRVTMTRDTSTSTVYMELSSLRSEDTAVYYCARYGNYVGHYFDHWGQGTTVTVSS
VL: DIQLTQSPSFLSASVGDRVTVTCKASQNVDTNVAWYQQKPGKAPEPLLFSASYRYTGVPSRFSGSGSGTEFTLTISSLQPEDFATYYCQQYNSYPLTFGGGTKVEIKR
notes: also called M-HLA/M-KV3
B17: M-HLB heavy chain combined with the light chain construct M-KV3 (antibody, V domains shown)
VH: QVQLVQSGAEVKKPGASVKVSCKASGYTFTNYWMNWVRQAPGQGLEWMGEIRLKSNNFGRYYAQKFQGRVTITRDTSMSTAYMELSSLRSEDTAVYYCAAYGNYVGHYFDHWGQGTTVTVSS
VL: DIQLTQSPSFLSASVGDRVTVTCKASQNVDTNVAWYQQKPGKAPEPLLFSASYRYTGVPSRFSGSGSGTEFTLTISSLQPEDFATYYCQQYNSYPLTFGGGTKVEIKR
notes: also called M-HLB/M-KV3
B18: M-HLD heavy chain paired with the M-KV9 light chain (antibody, V domains shown)
VH: QVQLVQSGAEVKKPGASVKVSCKASGFTFSNYWMNWVRQAPGQGLEWMGEIRLKSNNFGRYYAESVKGRVTITRDTSMSTAYMELSSLRSEDTAVYYCAAYGNYVGHYFDHWGQGTTVTVSS
VL: DIQLTQSPSFLSASVGDRVTITCKASQNVDTNVAWYQQKPGQAPRPLIYSASYRYTGVPSRFSGSGSGTEFTLTISSLQPEDFATYYCQQYNSYPLTFGGGTKVEIKR
notes: also called M-HLD/M-KV9
B19: M-KV3 light chain coexpressed with murine 225.28S heavy chain (mVH) (antibody, V domains shown)
VH: QVKLQQSGGGLVQPGGSMKLSCVVSGFTFSNYWMNWVRQSPEKGLEWIAEIRLKSNNFGRYYAESVKGRFTISRDDSKSSAYLQMINLRAEDTGIYYCTSYGNYVGHYFDHWGQGTTVTVSS
VL: DIQLTQSPSFLSASVGDRVTVTCKASQNVDTNVAWYQQKPGKAPEPLLFSASYRYTGVPSRFSGSGSGTEFTLTISSLQPEDFATYYCQQYNSYPLTFGGGTKVEIKR
notes: The VL entry ends in KRT; also called mVH/M-KV3

Target: T1, human melanoma chondroitin sulfate proteoglycan (MCSP) (human, UniProt Q6UVK1 30-2322)
T1 construct: whole, on cells; also called HMW-MAA; high molecular weight-melanoma-associated antigen
T1 sequence (Q6UVK1 30-2322): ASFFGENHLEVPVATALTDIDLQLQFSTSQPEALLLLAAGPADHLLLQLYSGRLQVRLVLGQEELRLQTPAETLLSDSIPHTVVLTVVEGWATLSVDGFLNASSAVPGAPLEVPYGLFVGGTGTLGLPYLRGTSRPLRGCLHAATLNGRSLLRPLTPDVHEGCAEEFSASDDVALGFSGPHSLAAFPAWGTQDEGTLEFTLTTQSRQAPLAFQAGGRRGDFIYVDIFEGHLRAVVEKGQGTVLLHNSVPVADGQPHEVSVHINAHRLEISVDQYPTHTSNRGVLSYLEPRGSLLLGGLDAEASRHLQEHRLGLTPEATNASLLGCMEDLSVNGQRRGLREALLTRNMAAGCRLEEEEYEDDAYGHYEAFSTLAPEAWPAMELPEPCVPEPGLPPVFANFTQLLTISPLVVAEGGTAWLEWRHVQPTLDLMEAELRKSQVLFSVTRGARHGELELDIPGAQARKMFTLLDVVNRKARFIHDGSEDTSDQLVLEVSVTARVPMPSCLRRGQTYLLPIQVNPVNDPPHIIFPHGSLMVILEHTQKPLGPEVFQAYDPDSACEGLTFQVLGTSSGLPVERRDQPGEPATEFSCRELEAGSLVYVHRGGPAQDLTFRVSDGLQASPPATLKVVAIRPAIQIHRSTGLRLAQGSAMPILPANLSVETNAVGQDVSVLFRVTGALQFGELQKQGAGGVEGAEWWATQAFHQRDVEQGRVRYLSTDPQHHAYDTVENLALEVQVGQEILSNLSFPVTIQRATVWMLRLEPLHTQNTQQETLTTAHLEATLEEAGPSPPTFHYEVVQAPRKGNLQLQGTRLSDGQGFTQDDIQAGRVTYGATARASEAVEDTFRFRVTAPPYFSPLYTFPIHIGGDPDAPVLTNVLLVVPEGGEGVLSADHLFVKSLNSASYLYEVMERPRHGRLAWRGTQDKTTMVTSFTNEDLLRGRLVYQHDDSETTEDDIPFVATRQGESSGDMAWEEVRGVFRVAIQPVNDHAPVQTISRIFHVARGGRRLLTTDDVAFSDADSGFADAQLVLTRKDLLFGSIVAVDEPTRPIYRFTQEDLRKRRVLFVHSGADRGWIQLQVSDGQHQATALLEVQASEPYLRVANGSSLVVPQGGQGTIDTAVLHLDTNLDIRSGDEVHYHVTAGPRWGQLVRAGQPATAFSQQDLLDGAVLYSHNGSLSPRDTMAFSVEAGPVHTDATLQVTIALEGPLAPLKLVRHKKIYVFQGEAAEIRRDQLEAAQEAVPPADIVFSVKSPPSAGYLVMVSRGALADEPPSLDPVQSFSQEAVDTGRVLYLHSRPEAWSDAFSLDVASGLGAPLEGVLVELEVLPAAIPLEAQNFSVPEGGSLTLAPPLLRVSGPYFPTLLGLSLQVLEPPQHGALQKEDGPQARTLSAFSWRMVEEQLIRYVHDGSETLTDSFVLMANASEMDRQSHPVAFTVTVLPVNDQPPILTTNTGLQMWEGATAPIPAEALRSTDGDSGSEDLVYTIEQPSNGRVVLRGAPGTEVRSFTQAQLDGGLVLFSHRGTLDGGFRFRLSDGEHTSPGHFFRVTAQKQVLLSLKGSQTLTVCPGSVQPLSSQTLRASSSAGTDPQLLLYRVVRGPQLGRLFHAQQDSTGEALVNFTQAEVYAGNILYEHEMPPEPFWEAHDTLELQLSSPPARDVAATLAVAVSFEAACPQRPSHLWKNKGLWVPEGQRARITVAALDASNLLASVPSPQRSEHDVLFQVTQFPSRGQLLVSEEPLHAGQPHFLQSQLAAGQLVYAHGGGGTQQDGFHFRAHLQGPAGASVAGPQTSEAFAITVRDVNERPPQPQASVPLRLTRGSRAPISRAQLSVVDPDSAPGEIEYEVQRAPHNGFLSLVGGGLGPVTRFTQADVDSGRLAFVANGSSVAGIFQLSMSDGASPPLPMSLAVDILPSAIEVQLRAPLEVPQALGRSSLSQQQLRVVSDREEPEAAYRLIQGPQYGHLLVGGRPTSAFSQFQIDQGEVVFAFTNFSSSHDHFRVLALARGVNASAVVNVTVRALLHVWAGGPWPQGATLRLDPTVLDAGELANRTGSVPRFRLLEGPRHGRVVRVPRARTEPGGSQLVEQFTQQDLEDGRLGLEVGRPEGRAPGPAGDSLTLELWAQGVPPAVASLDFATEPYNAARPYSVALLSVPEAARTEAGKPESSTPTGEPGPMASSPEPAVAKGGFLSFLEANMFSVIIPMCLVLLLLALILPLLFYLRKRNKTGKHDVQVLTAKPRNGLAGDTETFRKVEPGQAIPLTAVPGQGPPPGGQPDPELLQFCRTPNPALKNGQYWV
Experiment: flow cytometry on A375 human melanoma cells
Description: The purified, monomeric humanized antibody variants were tested for binding to the human HMW-MAA/MCSP antigen on the A375 human melanoma cell line, using a flow cytometry-based assay. 200,000 cells (in 180 μl FACS buffer (PBS containing 2% FCS and 5 mM EDTA) were transferred to 5 ml polystyrene tubes and 20 μl 10 fold concentrated anti-MCSP antibody (primary antibody) samples (1-5000 ng/ml final concentration) or PBS only were added. After gently mixing the samples, the tubes were incubated at 4° C. for 30 min in the dark. Subsequently, samples were washed twice with FACS buffer and pelleted at 300 g for 3 min. Supernatant was aspirated off and cells were taken up in 50 μl FACS buffer and 2 μl secondary antibody (anti-Fc-specific F(ab′)2-FITC fragments (Jackson Immuno Research Laboratories, USA)) was added and the tubes were incubated at 4° C. for 30 min. Samples were washed twice with FACS buffer and taken up in 500 μl of FACS buffer for analysis by Flow Cytometry. Binding was determined by plotting the geometric mean fluorescence against the antibody concentrations.

Binder | binding result
B1 | binds
B2 | binds
B3 | binds
B4 | binds
B5 | binds
B6 | binds
B7 | binds
B8 | binds
B9 | no binding (tested: 1-5000 ng/ml final concentration)
B10 | no binding (tested: 1-5000 ng/ml final concentration)
B11 | binds
B12 | binds
B13 | binds
B14 | binds
B15 | no binding (tested: 1-5000 ng/ml final concentration)
B16 | no binding (tested: 1-5000 ng/ml final concentration)
B17 | no binding (tested: 1-5000 ng/ml final concentration)
B18 | binds
B19 | binds
